To fix the notation:
B1: 58-H1L3 (antibody, V domains shown)
VH: QVQLVQSGAEVKKPGASVKVSCKASGYSFTGYYIHWVRQAPGQGLEWMGYISSYNAATSFNQKFKGRVTMTRDTSTSTVYMELSSLRSEDTAVYYCARTELRGPWFAYWGQGTLVTVSS
VL: DTQLTQSPSSLSASVGDRVTMTCSASSSVSYMNWYQQKPGKAPKRLIYDTSKLASGVPSRFSGSGSGTDYTLTISSMQPEDFATYYCQQWSNNPLTFGQGTKLEIK
notes: humanized 58F9G10, VH v1 x VL v3
B2: 58-H3L2 (antibody, V domains shown)
VH: B1 VH with R38K, M48I, M70F, R72V, L83F
VL: B1 VL with L4M, M21I, M77L
notes: humanized 58F9G10, VH v3 x VL v2
B3: 58-H4L1 (antibody, V domains shown)
VH: B1 VH with V20I, R38K, M48I, V68A, M70F, R72V, V79A, L83F, T91S
VL: B1 VL with T2I, L4M, M21I, R45L, Y70F, M77L
notes: humanized 58F9G10, VH v4 x VL v1
B4: 58-H4L2 (antibody, V domains shown)
VH: B1 VH with V20I, R38K, M48I, V68A, M70F, R72V, V79A, L83F, T91S
VL: B1 VL with L4M, M21I, M77L
notes: humanized 58F9G10, VH v4 x VL v2
B5: 58-H2L1 (antibody, V domains shown)
VH: B1 VH with M48I, M70F, R72V
VL: B1 VL with T2I, L4M, M21I, R45L, Y70F, M77L
notes: humanized 58F9G10, VH v2 x VL v1
B6: 58-H3L3 (antibody, V domains shown)
VH: B1 VH with R38K, M48I, M70F, R72V, L83F
VL: B1 VL
notes: humanized 58F9G10, VH v3 x VL v3
B7: 58-H2L3 (antibody, V domains shown)
VH: B1 VH with M48I, M70F, R72V
VL: B1 VL
notes: humanized 58F9G10, VH v2 x VL v3
B8: 58-H4L3 (antibody, V domains shown)
VH: B1 VH with V20I, R38K, M48I, V68A, M70F, R72V, V79A, L83F, T91S
VL: B1 VL
notes: humanized 58F9G10, VH v4 x VL v3
B9: 34-H2L2 (antibody, V domains shown)
VH: EVQLVESGGGLVKPGGSLRLSCAASGFTFSSYGMSWVRQTPGKGLEWVATISSGGSYTYYPDSVKGRFTISRDNAKNSLYLQMSSLRAEDTAVYYCARQGGDAMDYWGQGTLVTVSS
VL: DIQMTQSPSSLSASVGDRVTITCRASQSINNNLHWYQQKPGKAPKLLIYYASQSISGIPSRFSGSGSGTDFTLTISSVQPEDFATYFCQQSNSRLTFGGGTKVEIK
notes: humanized 34D3H1, VH v2 x VL v2
B10: 34-H1L4 (antibody, V domains shown)
VH: B9 VH with T40A, A49S, S84N
VL: B9 VL with Q3V, M4L, A13V, I21L, A43S, V103L
notes: humanized 34D3H1, VH v1 x VL v4
B11: 34-H1L2 (antibody, V domains shown)
VH: B9 VH with T40A, A49S, S84N
VL: B9 VL
notes: humanized 34D3H1, VH v1 x VL v2
B12: 34-H2L4 (antibody, V domains shown)
VH: B9 VH
VL: B9 VL with Q3V, M4L, A13V, I21L, A43S, V103L
notes: humanized 34D3H1, VH v2 x VL v4
B13: 34-H3L1 (antibody, V domains shown)
VH: B9 VH with Q3H, G44R, Y80N
VL: B9 VL with I58V, V78L, F87Y
notes: humanized 34D3H1, VH v3 x VL v1
B14: 34-H3L3 (antibody, V domains shown)
VH: B9 VH with Q3H, G44R, Y80N
VL: B9 VL with M4L, A43S, V103L
notes: humanized 34D3H1, VH v3 x VL v3
B15: 34-H3L2 (antibody, V domains shown)
VH: B9 VH with Q3H, G44R, Y80N
VL: B9 VL
notes: humanized 34D3H1, VH v3 x VL v2
B16: 34-H1L3 (antibody, V domains shown)
VH: B9 VH with T40A, A49S, S84N
VL: B9 VL with M4L, A43S, V103L
notes: humanized 34D3H1, VH v1 x VL v3
B17: 34-H2L3 (antibody, V domains shown)
VH: B9 VH
VL: B9 VL with M4L, A43S, V103L
notes: humanized 34D3H1, VH v2 x VL v3
B18: 34-H2L1 (antibody, V domains shown)
VH: B9 VH
VL: B9 VL with I58V, V78L, F87Y
notes: humanized 34D3H1, VH v2 x VL v1
B19: 34-H3L4 (antibody, V domains shown)
VH: B9 VH with Q3H, G44R, Y80N
VL: B9 VL with Q3V, M4L, A13V, I21L, A43S, V103L
notes: humanized 34D3H1, VH v3 x VL v4
B20: 37-H2L2 (antibody, V domains shown)
VH: EVQLVESGGGLVQPGGSLRLSCAASGFTFSDYWMNWVRQSPGKGLEWVAEIRLKSNNYATHYAESVKGRFTISRDNAKSSLYLQMNSLRAEDTAVYYCTRPLLWFRRYYAMDYWGQGTLVTVSS
VL: DIQMTQSPSSLSASVGDRVTITCSASQGISNYLNWYQQKPGKTVKLLIYYTSSLHSGVPSRFSGSGSGTDYTLTISSLQPEDFATYYCQQYSKLPFTFGQGTKLEIK
notes: humanized 37B9C4, VH v2 x VL v2
B21: 37-H1L3 (antibody, V domains shown)
VH: B20 VH with S40A, S79N, T99A
VL: B20 VL with V19I, Q100S
notes: humanized 37B9C4, VH v1 x VL v3
B22: 37-H2L1 (antibody, V domains shown)
VH: B20 VH
VL: B20 VL with T43A, V44P, Y71F
notes: humanized 37B9C4, VH v2 x VL v1
B23: 37-H3L2 (antibody, V domains shown)
VH: B20 VH with N76D, A77S, L81V
VL: B20 VL
notes: humanized 37B9C4, VH v3 x VL v2
B24: 37-H3L1 (antibody, V domains shown)
VH: B20 VH with N76D, A77S, L81V
VL: B20 VL with T43A, V44P, Y71F
notes: humanized 37B9C4, VH v3 x VL v1
B25: 37-H1L2 (antibody, V domains shown)
VH: B20 VH with S40A, S79N, T99A
VL: B20 VL
notes: humanized 37B9C4, VH v1 x VL v2
B26: 37-H3L3 (antibody, V domains shown)
VH: B20 VH with N76D, A77S, L81V
VL: B20 VL with V19I, Q100S
notes: humanized 37B9C4, VH v3 x VL v3
B27: 37-H2L3 (antibody, V domains shown)
VH: B20 VH
VL: B20 VL with V19I, Q100S
notes: humanized 37B9C4, VH v2 x VL v3

Positions count from the first letter of the chain named.

T1 sequence (Q9NZD1 whole entry): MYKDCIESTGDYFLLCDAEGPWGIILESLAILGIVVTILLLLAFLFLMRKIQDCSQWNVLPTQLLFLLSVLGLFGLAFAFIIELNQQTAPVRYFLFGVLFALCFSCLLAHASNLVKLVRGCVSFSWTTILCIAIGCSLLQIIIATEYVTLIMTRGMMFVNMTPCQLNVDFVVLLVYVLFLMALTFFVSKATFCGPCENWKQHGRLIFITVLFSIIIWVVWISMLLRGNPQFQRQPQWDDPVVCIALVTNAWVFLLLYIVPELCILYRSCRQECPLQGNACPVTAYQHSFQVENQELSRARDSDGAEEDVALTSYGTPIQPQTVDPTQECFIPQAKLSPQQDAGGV

One experiment concerns the target T1, human G-protein-coupled receptor family C group 5 member D (GPRC5D) (human, UniProt Q9NZD1 1-345).
T1 construct: whole, on cells; also called human GPRC5D protein
The experiment is described as follows: FACS, CHO-K1/GPRC5D. In general terms: Flow cytometry measures light scatter and fluorescence of single cells or particles in a stream.
In turn, B1 displayed a Bottom of 4230, a LogEC50 of 0.231, a Span of 101000 and a Top of 105000.
For B2, in that order: 5980, 0.374, 99500 and 105000.
Turning to B3, the Bottom is 4990, the LogEC50 is 0.365, the Span came to 99600 and the Top came out at 105000.
With B4, the Bottom is 4600, the LogEC50 came to 0.341, the Span was 100000 and the Top turned out to be 105000.
Molecule B5 registered a Bottom of 3620, a LogEC50 of 0.378, a Span of 106000 and a Top of 110000.
Molecule B6 yielded a Bottom of 4020, a LogEC50 of 0.318, a Span of 93700 and a Top of 97700.
B7 had a Bottom of 1230, a LogEC50 of 0.27, a Span of 90500 and a Top of 91700.
B8: the Bottom was 6250, the LogEC50 is 0.287, the Span amounted to 96400 and the Top came out at 103000.

The next experiment addresses T1, human G-protein-coupled receptor family …. Kind of experiment: FACS, CHO-K1/GPRC5D. This is another data set of the same source.
B9: the Bottom came out at 8740, the LogEC50 stood at 0.625, the Span was determined as 170000 and the Top was determined as 179000.
As for B10, the Bottom is 10300, the LogEC50 was 0.6, the Span worked out at 179000 and the Top was found to be 189000.
In the case of B11, the Bottom was found to be 13900, the LogEC50 came to 0.584, the Span was 168000 and the Top came to 182000.
The molecule B12 displayed a Bottom of 4390, a LogEC50 of 0.609, a Span of 188000 and a Top of 192000.
B13 gave a Bottom of 11100, a LogEC50 of 0.521, a Span of 167000 and a Top of 178000.
For B14, in that order: 9120, 0.651, 184000 and 193000.
The corresponding values for B15 are 9040, 0.646, 171000 and 180000.
The molecule B16 displayed a Bottom of 10600, a LogEC50 of 0.573, a Span of 175000 and a Top of 186000.
B17 came in with a Bottom of 7060, a LogEC50 of 0.583, a Span of 179000 and a Top of 186000.
Take B18: the Bottom was found to be 7850, the LogEC50 came out at 0.619, the Span was 179000 and the Top was 187000.
B19 registered a Bottom of 12800, a LogEC50 of 0.598, a Span of 180000 and a Top of 193000.

For another experiment the target is unchanged. The experiment is described as follows: FACS, CHO-K1/GPRC5D. The source holds these as a separate data set.
B20 had a Bottom of 9380, a LogEC50 of 0.345, a Span of 166000 and a Top of 175000.
In turn, B21 yielded a Bottom of 10400, a LogEC50 of 0.233, a Span of 163000 and a Top of 173000.
The molecule B22 came in with a Bottom of 9180, a LogEC50 of 0.351, a Span of 166000 and a Top of 175000.
B23: the Bottom amounted to 9190, the LogEC50 worked out at 0.315, the Span is 170000 and the Top stood at 179000.
B24: the Bottom amounted to 6370, the LogEC50 stood at 0.292, the Span was found to be 173000 and the Top was determined as 179000.
The molecule B25 registered a Bottom of 8850, a LogEC50 of 0.35, a Span of 173000 and a Top of 182000.
Regarding B26, the Bottom amounted to 7780, the LogEC50 turned out to be 0.285, the Span is 173000 and the Top was 181000.
For B27, in that order: 8050, 0.333, 160000 and 168000.

(Values after patent US12281162 (LANOVA MEDICINES DEVELOPMENT, dated 2025).)
